Source: patent US20250320281A1

Key:
[1] = molecular target: HIV-1 92UG024 Env (pseudovirus) (HIV-1); test: cell-based or functional assay
[2] = molecular target: HIV-1 Env of pseudovirus isolate MGRM-G-004 (HIV-1); test: cell-based or functional assay
[3] = molecular target: HIV-1 MGRM-C-026 Env (pseudovirus) (HIV-1); test: cell-based or functional assay
[4] = molecular target: HIV-1 Env of isolate MGRM-C-006 (HIV-1); test: cell-based or functional assay
[5] = molecular target: HIV-1 92RW020 Env (pseudovirus) (HIV-1); test: cell-based or functional assay
[6] = molecular target: HIV-1 Env of isolate MGRM-C-001 (HIV-1); test: cell-based or functional assay
[7] = molecular target: HIV-1 MGRM-D-018 Env (pseudovirus) (HIV-1); test: cell-based or functional assay
[8] = molecular target: HIV-1 Env of isolate MGRM-C-004 (HIV-1); test: cell-based or functional assay
[9] = molecular target: HIV-1 93IN905 Env (pseudovirus) (HIV-1); test: cell-based or functional assay
[10] = molecular target: HIV-1 Env of isolate MGRM-C-025 (HIV-1); test: cell-based or functional assay
[11] = molecular target: HIV-1 APV6 Env (pseudovirus) (HIV-1); test: cell-based or functional assay
[12] = molecular target: HIV-1 JRCSF Env (pseudovirus) (HIV-1) (UniProt P20871); test: cell-based or functional assay
[13] = molecular target: HIV-1 NL43 Env (pseudovirus) (HIV-1); test: cell-based or functional assay
[14] = molecular target: HIV-1 Env of pseudovirus isolate MGRM-G-015 (HIV-1); test: cell-based or functional assay
[15] = molecular target: HIV-1 Env of isolate MGRM-C-020 (HIV-1); test: cell-based or functional assay
[16] = molecular target: HIV-1 MGRM-C-028 Env (pseudovirus) (HIV-1); test: cell-based or functional assay
[17] = molecular target: HIV-1 Env of isolate MGRM-C-005 (HIV-1); test: cell-based or functional assay
[18] = molecular target: HIV-1 Env of isolate MGRM-C-008 (HIV-1); test: cell-based or functional assay
[19] = molecular target: HIV-1 Env of isolate MGRM-C-014 (HIV-1); test: cell-based or functional assay
[20] = molecular target: envelope of aMLV pseudovirus (negative control); test: cell-based or functional assay
[21] = molecular target: HIV-1 Env of pseudovirus isolate MGRM-G-006 (HIV-1); test: cell-based or functional assay
[22] = molecular target: HIV-1 MGRM-A-010 Env (pseudovirus) (HIV-1); test: cell-based or functional assay
[23] = molecular target: HIV-1 94UG103 Env (pseudovirus) (HIV-1); test: cell-based or functional assay
[24] = molecular target: HIV-1 Env of pseudovirus isolate MGRM-G-009 (HIV-1); test: cell-based or functional assay
[25] = molecular target: HIV-1 Env of isolate MGRM-C-022 (HIV-1); test: cell-based or functional assay
[26] = molecular target: HIV-1 Env of pseudovirus isolate MGRM-G-014 (HIV-1); test: cell-based or functional assay
[27] = molecular target: HIV-1 Env of isolate MGRM-C-013 (HIV-1); test: cell-based or functional assay
[28] = molecular target: HIV-1 Env of pseudovirus isolate MGRM-G-019 (HIV-1); test: cell-based or functional assay
[29] = molecular target: HIV-1 92UG005 Env (pseudovirus) (HIV-1); test: cell-based or functional assay
[30] = molecular target: HIV-1 Env of pseudovirus isolate MGRM-G-013 (HIV-1); test: cell-based or functional assay
[31] = molecular target: HIV-1 MGRM-C-027 Env (pseudovirus) (HIV-1); test: cell-based or functional assay
[32] = molecular target: HIV-1 Env of isolate MGRM-C-007 (HIV-1); test: cell-based or functional assay
[33] = molecular target: HIV-1 Env of isolate MGRM-C-024 (HIV-1); test: cell-based or functional assay
[34] = molecular target: HIV-1 Env of isolate MGRM-C-023 (HIV-1); test: cell-based or functional assay
[35] = molecular target: HIV-1 Env of pseudovirus isolate MGRM-G-011 (HIV-1); test: cell-based or functional assay
[36] = molecular target: HIV-1 Env of isolate MGRM-C-010 (HIV-1); test: cell-based or functional assay
[37] = molecular target: HIV-1 Env of isolate MGRM-C-012 (HIV-1); test: cell-based or functional assay
[38] = molecular target: HIV-1 92TH021 Env (pseudovirus) (HIV-1); test: cell-based or functional assay
[39] = molecular target: HIV-1 Env of pseudovirus isolate MGRM-G-017 (HIV-1); test: cell-based or functional assay
[40] = molecular target: HIV-1 CMU02 Env (pseudovirus) (HIV-1); test: cell-based or functional assay
[41] = molecular target: HIV-1 Env of isolate MGRM-C-019 (HIV-1); test: cell-based or functional assay
[42] = molecular target: HIV-1 Env of pseudovirus isolate MGRM-G-016 (HIV-1); test: cell-based or functional assay
[43] = molecular target: HIV-1 Env of isolate MGRM-C-015 (HIV-1); test: cell-based or functional assay
[44] = molecular target: HIV-1 Env of pseudovirus isolate MGRM-G-027 (HIV-1); test: cell-based or functional assay
[45] = molecular target: HIV-1 Env of isolate MGRM-C-002 (HIV-1); test: cell-based or functional assay
[46] = molecular target: HIV-1 Env of pseudovirus isolate MGRM-G-001 (HIV-1); test: cell-based or functional assay
[47] = molecular target: HIV-1 Env of isolate MGRM-C-009 (HIV-1); test: cell-based or functional assay
[48] = molecular target: HIV-1 Env of isolate MGRM-C-017 (HIV-1); test: cell-based or functional assay
[49] = molecular target: WT JR-FL gp120 (HIV-1); test: ELISA, antigen-coated wells

Question: Which results are given for 4858_P08 (PGT-123) (antibody)?
Answer: neutralization IC50 (pseudovirus) [1]: > 10 µg/mL; IC50 (µg/mL), pseudovirus neutralization [2]: 0.181 µg/mL; neutralization IC50 (pseudovirus) [3]: 0.0031 µg/mL; neutralization IC50 [4]: 0.021 µg/mL; neutralization IC50 (pseudovirus) [5]: 0.0038 µg/mL; neutralization IC50 [6]: 42.4 µg/mL; neutralization IC50 (pseudovirus) [7]: 0.0047 µg/mL; neutralization IC50 [8]: 0.009 µg/mL; neutralization IC50 (pseudovirus) [9]: 0.0071 µg/mL; neutralization IC50 [10]: 13.3 µg/mL; neutralization IC50 (pseudovirus) [11]: 0.0328 µg/mL; neutralization IC50 (pseudovirus) [12]: 0.0423 µg/mL; neutralization IC50 (pseudovirus) [13]: > 10 µg/mL; IC50 (µg/mL), pseudovirus neutralization [14]: > 50 µg/mL; neutralization IC50 [15]: > 50 µg/mL; neutralization IC50 (pseudovirus) [16]: 0.443 µg/mL; neutralization IC50 [17]: 0.012 µg/mL; neutralization IC50 [18]: 0.011 µg/mL; neutralization IC50 [19]: 1 µg/mL; IC50 (µg/mL), pseudovirus neutralization [20]: > 50 µg/mL; IC50 (µg/mL), pseudovirus neutralization [21]: > 50 µg/mL; neutralization IC50 (pseudovirus) [22]: 0.492 µg/mL; neutralization IC50 (pseudovirus) [23]: 0.846 µg/mL; IC50 (µg/mL), pseudovirus neutralization [24]: 33.5 µg/mL; neutralization IC50 [25]: 0.01 µg/mL; IC50 (µg/mL), pseudovirus neutralization [26]: 0.005 µg/mL; neutralization IC50 [27]: 14.9 µg/mL; IC50 (µg/mL), pseudovirus neutralization [28]: 0.008 µg/mL; neutralization IC50 (pseudovirus) [29]: 2.49 µg/mL; IC50 (µg/mL), pseudovirus neutralization [30]: 3.97 µg/mL; neutralization IC50 (pseudovirus) [31]: 0.0169 µg/mL; neutralization IC50 [32]: 0.547 µg/mL; neutralization IC50 [33]: 0.195 µg/mL; neutralization IC50 [34]: 0.011 µg/mL; IC50 (µg/mL), pseudovirus neutralization [35]: 14.9 µg/mL; neutralization IC50 [36]: > 50 µg/mL; neutralization IC50 [37]: 0.606 µg/mL; neutralization IC50 (pseudovirus) [38]: > 10 µg/mL; IC50 (µg/mL), pseudovirus neutralization [39]: 0.026 µg/mL; neutralization IC50 (pseudovirus) [40]: > 10 µg/mL; neutralization IC50 [41]: > 50 µg/mL; IC50 (µg/mL), pseudovirus neutralization [42]: > 50 µg/mL; neutralization IC50 [43]: 13.1 µg/mL; IC50 (µg/mL), pseudovirus neutralization [44]: 0.182 µg/mL; neutralization IC50 [45]: 0.01 µg/mL; IC50 (µg/mL), pseudovirus neutralization [46]: 0.009 µg/mL; neutralization IC50 [47]: > 50 µg/mL; neutralization IC50 [48]: 0.01 µg/mL; EC50 [49]: 0.2 µg/mL

Question: Which neutralization IC50 (pseudovirus) [1] does the source give for 4877_D15 (PGT-122) (antibody) here?
Answer: > 10 µg/mL

Question: What about the IC50 (µg/mL), pseudovirus neutralization [2] of the same substance?
Answer: 2.15 µg/mL

Question: And the neutralization IC50 (pseudovirus) [3]?
Answer: 0.0089 µg/mL

Question: What about the neutralization IC50 [4] of the same substance?
Answer: 0.018 µg/mL

Question: And the neutralization IC50 (pseudovirus) [5]?
Answer: 0.0072 µg/mL

Question: And the neutralization IC50 [6]?
Answer: 19.1 µg/mL

Question: What about the neutralization IC50 (pseudovirus) [7] of the same substance?
Answer: 0.0115 µg/mL

Question: What about the neutralization IC50 [8] of the same substance?
Answer: 0.02 µg/mL

Question: What about the neutralization IC50 (pseudovirus) [9] of the same substance?
Answer: 0.0138 µg/mL

Question: And the neutralization IC50 [10]?
Answer: 8.69 µg/mL

Question: And the neutralization IC50 (pseudovirus) [11]?
Answer: 0.0851 µg/mL

Question: What about the neutralization IC50 (pseudovirus) [12] of the same substance?
Answer: 0.0727 µg/mL

Question: What about the neutralization IC50 (pseudovirus) [13] of the same substance?
Answer: > 10 µg/mL

Question: What about the IC50 (µg/mL), pseudovirus neutralization [14] of the same substance?
Answer: > 50 µg/mL

Question: And the neutralization IC50 [15]?
Answer: 14 µg/mL

Question: And the neutralization IC50 (pseudovirus) [16]?
Answer: 2.06 µg/mL

Question: What about the neutralization IC50 [17] of the same substance?
Answer: 0.027 µg/mL

Question: What about the neutralization IC50 [18] of the same substance?
Answer: 0.028 µg/mL

Question: And the neutralization IC50 [19]?
Answer: > 50 µg/mL

Question: What about the IC50 (µg/mL), pseudovirus neutralization [20] of the same substance?
Answer: > 50 µg/mL

Question: And the IC50 (µg/mL), pseudovirus neutralization [21]?
Answer: > 50 µg/mL

Question: And the neutralization IC50 (pseudovirus) [22]?
Answer: 1.68 µg/mL

Question: And the neutralization IC50 (pseudovirus) [23]?
Answer: 1.46 µg/mL

Question: And the IC50 (µg/mL), pseudovirus neutralization [24]?
Answer: 0.514 µg/mL

Question: And the neutralization IC50 [25]?
Answer: 0.012 µg/mL

Question: And the IC50 (µg/mL), pseudovirus neutralization [26]?
Answer: 0.008 µg/mL

Question: What about the neutralization IC50 [27] of the same substance?
Answer: 32.6 µg/mL

Question: And the IC50 (µg/mL), pseudovirus neutralization [28]?
Answer: 0.016 µg/mL

Question: And the neutralization IC50 (pseudovirus) [29]?
Answer: > 10 µg/mL

Question: And the IC50 (µg/mL), pseudovirus neutralization [30]?
Answer: 3.45 µg/mL

Question: And the neutralization IC50 (pseudovirus) [31]?
Answer: 0.0388 µg/mL

Question: And the neutralization IC50 [32]?
Answer: 3.35 µg/mL

Question: And the neutralization IC50 [33]?
Answer: 0.102 µg/mL

Question: And the neutralization IC50 [34]?
Answer: 0.027 µg/mL

Question: And the IC50 (µg/mL), pseudovirus neutralization [35]?
Answer: 31.3 µg/mL

Question: What about the neutralization IC50 [36] of the same substance?
Answer: > 50 µg/mL

Question: And the neutralization IC50 [37]?
Answer: 2 µg/mL

Question: What about the neutralization IC50 (pseudovirus) [38] of the same substance?
Answer: > 10 µg/mL

Question: What about the IC50 (µg/mL), pseudovirus neutralization [39] of the same substance?
Answer: 0.032 µg/mL

Question: What about the neutralization IC50 (pseudovirus) [40] of the same substance?
Answer: > 10 µg/mL

Question: What about the neutralization IC50 [41] of the same substance?
Answer: > 50 µg/mL

Question: And the IC50 (µg/mL), pseudovirus neutralization [42]?
Answer: > 50 µg/mL

Question: What about the neutralization IC50 [43] of the same substance?
Answer: > 50 µg/mL

Question: And the IC50 (µg/mL), pseudovirus neutralization [44]?
Answer: 0.606 µg/mL

Question: What about the neutralization IC50 [45] of the same substance?
Answer: 0.022 µg/mL

Question: And the IC50 (µg/mL), pseudovirus neutralization [46]?
Answer: 0.005 µg/mL

Question: And the neutralization IC50 [47]?
Answer: > 50 µg/mL

Question: What about the neutralization IC50 [48] of the same substance?
Answer: 0.015 µg/mL

Question: And the EC50 [49]?
Answer: 0.3 µg/mL
